Measured values reported in article PMC9715652, “Structural insights into mechanism and specificity of the plant protein O-fucosyltransferase SPINDLY” (Nature Communications, 2022).

What was measured:
[1] = in vitro fucosylation of DELLA1–205, AAL lectin blot; conditions: glycan lost; control: wild type SPY
[2] = gel filtration; conditions: glycan gained; control: wild type unmodified SPY
[3] = biological target: the molecule itself; experiment: SEC-MALS; ~500 μg loaded on Superdex 200 increase 10/300 connected to a HELEOS multi-angle light scattering instrument; 20 mM Tris pH 7.9, 300 mM NaCl, 0.5 mM TCEP
[4] = biological target: the molecule itself; experiment: SEC; Superdex 200 Increase 10/300 GL, 0.5 mL injected; 50 mM Tris pH 7.9, 300 mM NaCl, 0.5 mM TCEP, 2 mM benzamidine; samples incubated at 4 °C for 6 h; peak fractions on SDS-PAGE

Protein	enzymatic_activity [1]	stoichiometry N [3]	also measured
SPINDLY (SPY): S21A (protein) parent chain: MVGLEDDTERERSPVVENGFSNGSRSSSSSAGVLSPSRKVTQGNDTLSYANILRARNKFADALALYEAMLEKDSKNVEAHIGKGICLQTQNKGNLAFDCFSEAIRLDPHNACALTHCGILHKEEGRLVEAAESYQKALMADASYKPAAECLAIVLTDLGTSLKLAGNTQEGIQKYYEALKIDPHYAPAYYNLGVVYSEMMQYDNALSCYEKAALERPMYAEAYCNMGVIYKNRGDLEMAITCYERCLAVSPNFEIAKNNMAIALTDLGTKVKLEGDVTQGVAYYKKALYYNWHYADAMYNLGVAYGEMLKFDMAIVFYELAFHFNPHCAEACNNLGVLYKDRDNLDKAVECYQMALSIKPNFAQSLNNLGVVYTVQGKMDAAASMIEKAILANPTYAEAFNNLGVLYRDAGNITMAIDAYEECLKIDPDSRNAGQNRLLAMNYINEGLDDKLFEAHRDWGWRFTRLHPQYTSWDNLKDPERPITIGYISPDFFTHSVSYFIEAPLTHHDYTKYKVVVYSAVVKADAKTYRFRDKVLKKGGVWKDIYGIDEKKIASMVREDKIDILVELTGHTANNKLGTMACRPAPVQVTWIGYPNTTGLPTVDYRITDSLADPPDTKQKQVEELVRLPDCFLCYTPSPEAGPVCPTPALSNGFVTFGSFNNLAKITPKVLQVWARILCAVPNSRLVVKCKPFCCDSIRQRFLTTLEQLGLESKRVDLLPLILFNHDHMQAYSLMDISLDTFPYAGTTTTCESLYMGVPCVTMAGSVHAHNVGVSLLTKVGLGHLVAKNEDEYVQLSVDLASDVTALSKLRMSLRDLMAGSPVCNGPSFAVGLESAYRNMWKKYCKGEVPSLRRMEMLQKEVHDDPLISKDLGPSRVSVTGEATPSLKANGSAPVPSSLPTQSPQLSKRMDSTS	no change	–	–
SPINDLY (SPY): S24A (protein) parent chain: MVGLEDDTERERSPVVENGFSNGSRSSSSSAGVLSPSRKVTQGNDTLSYANILRARNKFADALALYEAMLEKDSKNVEAHIGKGICLQTQNKGNLAFDCFSEAIRLDPHNACALTHCGILHKEEGRLVEAAESYQKALMADASYKPAAECLAIVLTDLGTSLKLAGNTQEGIQKYYEALKIDPHYAPAYYNLGVVYSEMMQYDNALSCYEKAALERPMYAEAYCNMGVIYKNRGDLEMAITCYERCLAVSPNFEIAKNNMAIALTDLGTKVKLEGDVTQGVAYYKKALYYNWHYADAMYNLGVAYGEMLKFDMAIVFYELAFHFNPHCAEACNNLGVLYKDRDNLDKAVECYQMALSIKPNFAQSLNNLGVVYTVQGKMDAAASMIEKAILANPTYAEAFNNLGVLYRDAGNITMAIDAYEECLKIDPDSRNAGQNRLLAMNYINEGLDDKLFEAHRDWGWRFTRLHPQYTSWDNLKDPERPITIGYISPDFFTHSVSYFIEAPLTHHDYTKYKVVVYSAVVKADAKTYRFRDKVLKKGGVWKDIYGIDEKKIASMVREDKIDILVELTGHTANNKLGTMACRPAPVQVTWIGYPNTTGLPTVDYRITDSLADPPDTKQKQVEELVRLPDCFLCYTPSPEAGPVCPTPALSNGFVTFGSFNNLAKITPKVLQVWARILCAVPNSRLVVKCKPFCCDSIRQRFLTTLEQLGLESKRVDLLPLILFNHDHMQAYSLMDISLDTFPYAGTTTTCESLYMGVPCVTMAGSVHAHNVGVSLLTKVGLGHLVAKNEDEYVQLSVDLASDVTALSKLRMSLRDLMAGSPVCNGPSFAVGLESAYRNMWKKYCKGEVPSLRRMEMLQKEVHDDPLISKDLGPSRVSVTGEATPSLKANGSAPVPSSLPTQSPQLSKRMDSTS	no change	–	–
SPINDLY (SPY): self-fucosylated SPY (protein) parent chain: MVGLEDDTERERSPVVENGFSNGSRSSSSSAGVLSPSRKVTQGNDTLSYANILRARNKFADALALYEAMLEKDSKNVEAHIGKGICLQTQNKGNLAFDCFSEAIRLDPHNACALTHCGILHKEEGRLVEAAESYQKALMADASYKPAAECLAIVLTDLGTSLKLAGNTQEGIQKYYEALKIDPHYAPAYYNLGVVYSEMMQYDNALSCYEKAALERPMYAEAYCNMGVIYKNRGDLEMAITCYERCLAVSPNFEIAKNNMAIALTDLGTKVKLEGDVTQGVAYYKKALYYNWHYADAMYNLGVAYGEMLKFDMAIVFYELAFHFNPHCAEACNNLGVLYKDRDNLDKAVECYQMALSIKPNFAQSLNNLGVVYTVQGKMDAAASMIEKAILANPTYAEAFNNLGVLYRDAGNITMAIDAYEECLKIDPDSRNAGQNRLLAMNYINEGLDDKLFEAHRDWGWRFTRLHPQYTSWDNLKDPERPITIGYISPDFFTHSVSYFIEAPLTHHDYTKYKVVVYSAVVKADAKTYRFRDKVLKKGGVWKDIYGIDEKKIASMVREDKIDILVELTGHTANNKLGTMACRPAPVQVTWIGYPNTTGLPTVDYRITDSLADPPDTKQKQVEELVRLPDCFLCYTPSPEAGPVCPTPALSNGFVTFGSFNNLAKITPKVLQVWARILCAVPNSRLVVKCKPFCCDSIRQRFLTTLEQLGLESKRVDLLPLILFNHDHMQAYSLMDISLDTFPYAGTTTTCESLYMGVPCVTMAGSVHAHNVGVSLLTKVGLGHLVAKNEDEYVQLSVDLASDVTALSKLRMSLRDLMAGSPVCNGPSFAVGLESAYRNMWKKYCKGEVPSLRRMEMLQKEVHDDPLISKDLGPSRVSVTGEATPSLKANGSAPVPSSLPTQSPQLSKRMDSTS	–	–	oligomerisation [2]: no change
engineered Arabidopsis SPY^C645S (enzyme, Arabidopsis thaliana, UniProt Q96301 1-914, looked up, SPINDLY (SPY), Arabidopsis thaliana, At3g11540, full-length with C645S; Crystallised with GDP; residues 848-914 and most of 1-43 are invisible in the structure; also called SPY (in the SPY/GDP complex structure); catalytic SPY; not shown: His6, N-terminal, cleaved; SUMO, N-terminal, cleaved) MVGLEDDTERERSPVVENGFSNGSRSSSSSAGVLSPSRKVTQGNDTLSYANILRARNKFADALALYEAMLEKDSKNVEAHIGKGICLQTQNKGNLAFDCFSEAIRLDPHNACALTHCGILHKEEGRLVEAAESYQKALMADASYKPAAECLAIVLTDLGTSLKLAGNTQEGIQKYYEALKIDPHYAPAYYNLGVVYSEMMQYDNALSCYEKAALERPMYAEAYCNMGVIYKNRGDLEMAITCYERCLAVSPNFEIAKNNMAIALTDLGTKVKLEGDVTQGVAYYKKALYYNWHYADAMYNLGVAYGEMLKFDMAIVFYELAFHFNPHCAEACNNLGVLYKDRDNLDKAVECYQMALSIKPNFAQSLNNLGVVYTVQGKMDAAASMIEKAILANPTYAEAFNNLGVLYRDAGNITMAIDAYEECLKIDPDSRNAGQNRLLAMNYINEGLDDKLFEAHRDWGWRFTRLHPQYTSWDNLKDPERPITIGYISPDFFTHSVSYFIEAPLTHHDYTKYKVVVYSAVVKADAKTYRFRDKVLKKGGVWKDIYGIDEKKIASMVREDKIDILVELTGHTANNKLGTMACRPAPVQVTWIGYPNTTGLPTVDYRITDSLADPPDTKQKQVEELVRLPDCFLCYTPSPEAGPVSPTPALSNGFVTFGSFNNLAKITPKVLQVWARILCAVPNSRLVVKCKPFCCDSIRQRFLTTLEQLGLESKRVDLLPLILFNHDHMQAYSLMDISLDTFPYAGTTTTCESLYMGVPCVTMAGSVHAHNVGVSLLTKVGLGHLVAKNEDEYVQLSVDLASDVTALSKLRMSLRDLMAGSPVCNGPSFAVGLESAYRNMWKKYCKGEVPSLRRMEMLQKEVHDDPLISKDLGPSRVSVTGEATPSLKANGSAPVPSSLPTQSPQLSKRMDSTS	–	2	–
Arabidopsis SPINDLY (SPY), wild type, full-length (enzyme, Arabidopsis thaliana, UniProt Q96301 1-914, looked up, Dimer in solution by SEC-MALS; also called wild type SPY; SPY^WT; not shown: His6, N-terminal, cleaved; SUMO, N-terminal, cleaved) MVGLEDDTERERSPVVENGFSNGSRSSSSSAGVLSPSRKVTQGNDTLSYANILRARNKFADALALYEAMLEKDSKNVEAHIGKGICLQTQNKGNLAFDCFSEAIRLDPHNACALTHCGILHKEEGRLVEAAESYQKALMADASYKPAAECLAIVLTDLGTSLKLAGNTQEGIQKYYEALKIDPHYAPAYYNLGVVYSEMMQYDNALSCYEKAALERPMYAEAYCNMGVIYKNRGDLEMAITCYERCLAVSPNFEIAKNNMAIALTDLGTKVKLEGDVTQGVAYYKKALYYNWHYADAMYNLGVAYGEMLKFDMAIVFYELAFHFNPHCAEACNNLGVLYKDRDNLDKAVECYQMALSIKPNFAQSLNNLGVVYTVQGKMDAAASMIEKAILANPTYAEAFNNLGVLYRDAGNITMAIDAYEECLKIDPDSRNAGQNRLLAMNYINEGLDDKLFEAHRDWGWRFTRLHPQYTSWDNLKDPERPITIGYISPDFFTHSVSYFIEAPLTHHDYTKYKVVVYSAVVKADAKTYRFRDKVLKKGGVWKDIYGIDEKKIASMVREDKIDILVELTGHTANNKLGTMACRPAPVQVTWIGYPNTTGLPTVDYRITDSLADPPDTKQKQVEELVRLPDCFLCYTPSPEAGPVCPTPALSNGFVTFGSFNNLAKITPKVLQVWARILCAVPNSRLVVKCKPFCCDSIRQRFLTTLEQLGLESKRVDLLPLILFNHDHMQAYSLMDISLDTFPYAGTTTTCESLYMGVPCVTMAGSVHAHNVGVSLLTKVGLGHLVAKNEDEYVQLSVDLASDVTALSKLRMSLRDLMAGSPVCNGPSFAVGLESAYRNMWKKYCKGEVPSLRRMEMLQKEVHDDPLISKDLGPSRVSVTGEATPSLKANGSAPVPSSLPTQSPQLSKRMDSTS	–	2	–
self-fucosylated SPY (enzyme, Arabidopsis thaliana, UniProt Q96301 1-914, looked up, O-fucose by self-fucosylation (major sites S21 and S24 by the paper's mutagenesis), SPINDLY (SPY), Arabidopsis thaliana, At3g11540, self-fucosylated sample run on gel filtration; Fucosylation of the sample was checked by western blotting with biotinylated AAL; also called SPY with fucosylation modification; source: E. coli BL21 (DE3), purified; self-fucosylated sample; not shown: His6, N-terminal, cleaved; SUMO, N-terminal, cleaved) MVGLEDDTERERSPVVENGFSNGSRSSSSSAGVLSPSRKVTQGNDTLSYANILRARNKFADALALYEAMLEKDSKNVEAHIGKGICLQTQNKGNLAFDCFSEAIRLDPHNACALTHCGILHKEEGRLVEAAESYQKALMADASYKPAAECLAIVLTDLGTSLKLAGNTQEGIQKYYEALKIDPHYAPAYYNLGVVYSEMMQYDNALSCYEKAALERPMYAEAYCNMGVIYKNRGDLEMAITCYERCLAVSPNFEIAKNNMAIALTDLGTKVKLEGDVTQGVAYYKKALYYNWHYADAMYNLGVAYGEMLKFDMAIVFYELAFHFNPHCAEACNNLGVLYKDRDNLDKAVECYQMALSIKPNFAQSLNNLGVVYTVQGKMDAAASMIEKAILANPTYAEAFNNLGVLYRDAGNITMAIDAYEECLKIDPDSRNAGQNRLLAMNYINEGLDDKLFEAHRDWGWRFTRLHPQYTSWDNLKDPERPITIGYISPDFFTHSVSYFIEAPLTHHDYTKYKVVVYSAVVKADAKTYRFRDKVLKKGGVWKDIYGIDEKKIASMVREDKIDILVELTGHTANNKLGTMACRPAPVQVTWIGYPNTTGLPTVDYRITDSLADPPDTKQKQVEELVRLPDCFLCYTPSPEAGPVCPTPALSNGFVTFGSFNNLAKITPKVLQVWARILCAVPNSRLVVKCKPFCCDSIRQRFLTTLEQLGLESKRVDLLPLILFNHDHMQAYSLMDISLDTFPYAGTTTTCESLYMGVPCVTMAGSVHAHNVGVSLLTKVGLGHLVAKNEDEYVQLSVDLASDVTALSKLRMSLRDLMAGSPVCNGPSFAVGLESAYRNMWKKYCKGEVPSLRRMEMLQKEVHDDPLISKDLGPSRVSVTGEATPSLKANGSAPVPSSLPTQSPQLSKRMDSTS	–	–	stoichiometry N [4]: 2
